Experiment [1] addresses T1, glycocalicin (the proteolytic fragment of GPIb) (human, UniProt P07359 17-506).
T1 construct: domain: glycocalicin (the proteolytic fragment of GPIb); Purified from human platelets; coated on the SPR sensor
The experiment can be described thus: SPR, comparison of Kd with that of VWF A1 on glycocalicin. The text has this: (§1) The sensorgrams at different concentrations were obtained and normalized by subtracting background signals from the glycocalicin surface.
In general terms: SPR reads the build-up and loss of mass on a sensor chip optically.

Experiment [2] addresses T1, glycocalicin (the proteolytic fragment …). The experiment can be described thus: SPR, ligand perfused over glycocalicin-coated sensor, Langmuir one-to-one fit.
Source text: as §1

The results in this text go back to US20100184672A1 (published 2010).

B1: Activated protein C (APC), human plasma-derived (enzyme)
chain 1: ANSFLEELRHSSLERECIEEICDFEEAKEIFQNVDDTLAFWSKHVDGDQCLVLPLEHPCASLCCGHGTCIDGIGSFSCDCRSGWEGRFCQREVSFLNCSLDNGGCTHYCLEEVGWRRCSCAPGYKLGDDLLQCHPAVKFPCGRPWKRMEKKRSHL
chain 2: LIDGKMTRRGDSPWQVVLLDSKKKLACGAVLIHPSWVLTAAHCMDESKKLLVRLGEYDLRRWEKWELDLDIKEVFVHPNYSKSTTDNDIALLHLAQPATLSQTIVPICLPDSGLAERELNQAGQETLVTGWGYHSSREKEAKRNRTFVLNFIKIPVVPHNECSEVMSNMVSENMLCAGILGDRQDACEGDSGGPMVASFHGTWFLVGLVSWGEGCGLLHNYGVYTKVSRYLDWIHGHIRDKEAPQKSWAP
notes: mature
As a reminder, the Kd is the free concentration of one partner at which half of the binding sites on the other are occupied at equilibrium, for simple one-to-one binding. Higher therefore signals a looser complex. Take B1: the “fold difference against the interaction of GPIb and VWF A1” value in experiment [1] was ~10 fold. In experiment [2], binding was characterised by a dissociation constant (Kd) of 0.308 µM.
